For assay [1], the target named is porcine fibrin (porcine) (UniProt P14460).
Assay [2] has as its target human fibrin (human) (UniProt P02671).
UniProt P02671, sequence (P02671 36-866, chain 1 of 3): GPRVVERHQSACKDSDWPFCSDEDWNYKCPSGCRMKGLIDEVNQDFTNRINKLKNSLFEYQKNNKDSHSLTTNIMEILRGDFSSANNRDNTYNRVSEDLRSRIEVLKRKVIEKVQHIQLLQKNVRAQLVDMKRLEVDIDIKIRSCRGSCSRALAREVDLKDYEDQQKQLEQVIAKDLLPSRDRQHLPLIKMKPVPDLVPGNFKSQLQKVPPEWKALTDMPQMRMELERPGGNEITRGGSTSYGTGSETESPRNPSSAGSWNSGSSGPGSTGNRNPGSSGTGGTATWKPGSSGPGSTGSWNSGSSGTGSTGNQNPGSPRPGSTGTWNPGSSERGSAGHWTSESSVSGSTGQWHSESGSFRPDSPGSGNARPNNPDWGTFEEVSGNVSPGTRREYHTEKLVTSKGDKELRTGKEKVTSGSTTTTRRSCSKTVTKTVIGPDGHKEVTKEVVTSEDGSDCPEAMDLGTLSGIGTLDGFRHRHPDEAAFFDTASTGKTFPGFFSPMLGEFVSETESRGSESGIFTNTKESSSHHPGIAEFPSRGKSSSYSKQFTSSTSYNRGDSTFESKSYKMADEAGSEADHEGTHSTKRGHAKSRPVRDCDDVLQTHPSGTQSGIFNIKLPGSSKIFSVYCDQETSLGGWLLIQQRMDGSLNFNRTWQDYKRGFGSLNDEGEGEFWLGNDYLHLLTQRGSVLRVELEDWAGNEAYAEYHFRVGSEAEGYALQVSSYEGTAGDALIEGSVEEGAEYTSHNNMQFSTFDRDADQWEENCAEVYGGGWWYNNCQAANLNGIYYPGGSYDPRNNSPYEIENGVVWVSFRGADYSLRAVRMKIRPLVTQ
UniProt P02671, sequence (P02675 45-491, chain 2 of 3, further chain): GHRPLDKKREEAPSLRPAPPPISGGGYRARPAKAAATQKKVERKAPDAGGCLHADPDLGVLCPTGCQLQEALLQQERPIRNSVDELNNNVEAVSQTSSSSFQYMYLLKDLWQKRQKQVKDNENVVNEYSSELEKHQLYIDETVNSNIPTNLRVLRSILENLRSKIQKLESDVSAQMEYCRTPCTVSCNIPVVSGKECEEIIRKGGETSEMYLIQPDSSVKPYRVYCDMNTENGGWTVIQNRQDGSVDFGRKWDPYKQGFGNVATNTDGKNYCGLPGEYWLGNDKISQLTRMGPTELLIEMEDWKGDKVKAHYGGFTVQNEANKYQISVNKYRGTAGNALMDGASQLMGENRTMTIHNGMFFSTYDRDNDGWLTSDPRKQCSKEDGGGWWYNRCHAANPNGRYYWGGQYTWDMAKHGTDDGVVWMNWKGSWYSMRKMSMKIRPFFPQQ
UniProt P02671, sequence (P02679 other isoform, or with tags, fused parts or gaps, chain 3 of 3, further chain): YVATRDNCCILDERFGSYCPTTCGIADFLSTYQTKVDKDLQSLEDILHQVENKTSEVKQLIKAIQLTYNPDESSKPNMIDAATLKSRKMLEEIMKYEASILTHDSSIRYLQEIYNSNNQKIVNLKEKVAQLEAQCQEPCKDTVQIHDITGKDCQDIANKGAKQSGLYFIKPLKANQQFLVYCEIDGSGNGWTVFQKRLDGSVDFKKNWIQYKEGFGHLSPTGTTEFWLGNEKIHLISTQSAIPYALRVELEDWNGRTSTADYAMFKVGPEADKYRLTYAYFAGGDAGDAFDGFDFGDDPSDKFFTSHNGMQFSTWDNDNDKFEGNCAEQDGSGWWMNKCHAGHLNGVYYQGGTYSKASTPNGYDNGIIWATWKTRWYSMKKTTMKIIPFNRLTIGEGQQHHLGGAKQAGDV

As for “human plasmin (from UniProt P00747 20-580) (enzyme)”, the K m of overall fibrin breakdown by plasmin (clot lysis time by turbidity against fibrinogen 0 to 5 µM, batroxobin clots, 5 nM active plasmin) turned out to be 1.3 µM in assay [1] and 1.1 µM in assay [2].

“porcine plasmin (from UniProt P06867 20-809; P06867 20-809) (enzyme)”: the K m of overall fibrin breakdown by plasmin (clot lysis time by turbidity against fibrinogen 0 to 5 µM, batroxobin clots, 5 nM active plasmin) was 4.9 µM in assay [1] and 3.1 µM in assay [2].

The record behind these values is paper PMC12817190.
